Laboratory results: article PMC12431651
Like-named read-outs stand apart in the source and are kept apart here.

Tests used:
[1] = target: MED25 ACID (Homo sapiens) (UniProt Q71SY5); conditions: cited from earlier work
[2] = target: MED25 ACID (Homo sapiens) (UniProt Q71SY5); conditions: cited from earlier work; remark: listed apart in the source
[3] = target: MED25 ACID (Homo sapiens) (UniProt Q71SY5); test: ITC; conditions: cited from earlier work
[4] = target: MED25 ACID (Homo sapiens) (UniProt Q71SY5); conditions: cited from earlier work; remark: listed apart in the source
[5] = target: His-tagged MED25 ACID (aa 389–543) (human) (UniProt Q71SY5); test: BLI; His-MED25 ACID (1 µM) captured on Ni-NTA biosensors, NS1 proteins as analytes in 2-fold dilutions; 20 mM Tris pH 8.0, 200 mM NaCl, 1 mM TCEP, 0.05% Tween, 25°C; global fit, 1:1 model for NS1, 2:1 heterogeneous model for NS1Δα3 and the point mutants
Chain of His-tagged MED25 ACID (aa 389–543) (human) (Q71SY5 389-543): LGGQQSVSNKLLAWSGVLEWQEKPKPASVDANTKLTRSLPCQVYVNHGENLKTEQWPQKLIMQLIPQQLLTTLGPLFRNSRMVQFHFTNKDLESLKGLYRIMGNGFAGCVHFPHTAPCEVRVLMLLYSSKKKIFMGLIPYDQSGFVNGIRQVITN

[6] = target: MED25 ACID (H1 interface) (Homo sapiens) (UniProt Q71SY5); test: NMR; conditions: cited from earlier work
Chain of MED25 ACID (H1 interface) (Homo sapiens) (Q71SY5 389-543): as above

[7] = target: MED25 ACID (Homo sapiens) (UniProt Q71SY5); test: NMR; conditions: cited from earlier work
[8] = target: MED25 ACID (Homo sapiens) (UniProt Q71SY5); conditions: cited from earlier work; remark: listed apart in the source
[9] = target: MED25 ACID (Homo sapiens) (UniProt Q71SY5); conditions: cited from earlier work; remark: listed apart in the source
[10] = target: MED25 ACID (Homo sapiens) (UniProt Q71SY5); conditions: cited from earlier work; remark: listed apart in the source
[11] = target: MED25 ACID (Homo sapiens) (UniProt Q71SY5); conditions: cited from earlier work; remark: listed apart in the source
[12] = target: MED25 ACID (Homo sapiens) (UniProt Q71SY5); conditions: cited from earlier work; remark: listed apart in the source

Chain of MED25 ACID (Homo sapiens) (Q71SY5 389-543): as above
Chain of ERM TAD (P41161 38-68): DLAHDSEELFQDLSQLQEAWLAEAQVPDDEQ
Chain of p53 TAD (P04637 1-61): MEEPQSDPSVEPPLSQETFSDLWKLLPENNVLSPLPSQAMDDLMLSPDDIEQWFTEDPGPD
Chain of p53 TAD2 (P04637 38-61): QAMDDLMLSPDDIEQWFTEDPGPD
Chain of ATF6α TAD (P18850 40-66): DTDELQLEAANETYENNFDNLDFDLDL

| Substance | Kd1 (binding mode 1) [5] [nM] | Kd2 (binding mode 2) [5] [nM] | ka1 (binding mode 1) [5] [M⁻¹ s⁻¹] | ka2 (binding mode 2) [5] [M⁻¹ s⁻¹] | kdis1 (binding mode 1) [5] [s⁻¹] | kdis2 (binding mode 2) [5] [s⁻¹] | also measured |
| --- | --- | --- | --- | --- | --- | --- | --- |
| ATF6α TAD (from UniProt P18850) |  |  |  |  |  |  | Kd [1]: 500 nM |
| ERM TAD (from UniProt P41161) |  |  |  |  |  |  | Kd [2]: 600 nM |
| NS1 (from UniProt P0DOE8) |  |  |  |  |  |  | Kd [3]: 15 nM; Kd [4]: 20 nM |
| NS1 E110A (natural protein) | 1630 | 1320 | 120000 | 3000 | 0.19 | 0.0034 |  |
| NS1 F56A (natural protein) | 333 | 72 | 130000 | 20000 | 0.043 | 0.0014 |  |
| NS1 I54A (natural protein) | 71.2 | 28.3 | 200000 | 80000 | 0.014 | 0.0023 |  |
| NS1 K112A (natural protein) | 68.1 | 7.5 | 160000 | 140000 | 0.011 | 0.0011 |  |
| NS1 M122A (natural protein) | 42.3 | 9.4 | 210000 | 120000 | 0.009 | 0.0011 |  |
| NS1 α3 peptide (from UniProt P0DOE8) |  |  |  |  |  |  | Kd [6]: 500000 nM; Kd [7]: 10000 nM |
| NS1Δα3 (NS1 aa 1–116) (domain or fragment) | 615 | 850 | 80000 | 3000 | 0.05 | 0.0024 |  |
| RSV NS1, full-length wild type (aa 1–139) (natural protein) |  |  |  |  |  |  | Kd [5]: 16.5 nM; koff [5]: 0.002 s⁻¹; kon [5]: 120000 M⁻¹ s⁻¹ |
| VP16 TAD1 (from UniProt P06492) |  |  |  |  |  |  | Kd [8]: 1600 nM; Kd [9]: 1600 nM |
| VP16 TAD (from UniProt P06492) |  |  |  |  |  |  | Kd [10]: 50 nM |
| p53 TAD2 (from UniProt P04637) |  |  |  |  |  |  | Kd [11]: 8100 nM |
| p53 TAD (from UniProt P04637) |  |  |  |  |  |  | Kd [12]: 800 nM |
